The source of these data is the nanobody polyreactivity screen of Harvey et al. (2022).

The data set can be described thus: yeast display, Sf9 membrane polyspecificity reagent, FACS + sequencing; frameworks hold sequencing errors. In short, it runs like this: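 Nanobodies from a synthetic yeast display library (Saccharomyces cerevisiae BJ5465), induced 36–48 hours with galactose, were stained 1 hour at 4 °C with 10% biotinylated, detergent-solubilized Sf9 membrane reagent, enriched on streptavidin microbeads, then FACS-sorted. Anti-HA (expression) and streptavidin (reagent binding) fluorescence set low and high (top ~1%) gates. Polyreactivity labels come from the gate of origin. Genes were colony-PCR amplified, MiSeq 2 × 250 sequenced and filtered by CDR length.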
Turning to “QVQLVESGGGLVQAGGSLRLSCAASGRTSVLYAMGWSRQAPGKEREFVAAITWNSGSTYYADSVKGRFTISRDNAKNTVYLQMISLKPEDTAVYYCNADYYFTSYRSTYDYWGQGTHVTVSS”, the “polyreactivity (PSR sort gate)” value was “low polyreactivity”.

For “QVQLVESGGGLVQAGGSLRLSCAASGRTSVRYAMGWYRQAPGKERELVAAISWSGGSTYYADSVKGRFTISRDNAKNTDYLQMNSLKAEDTAVYYCNAQHARGYYYWGQGTQVTVSS”, the “polyreactivity (PSR sort gate)” value was “low polyreactivity”.

As to “QVQLVESGGGLVQAGGSLRLSCAASGRTSWRYAMGWYRQAPGKERELVAAINRGGSTYYADSVMGRFTISRDNAKNTVYLQMNSLKPEDTAVYYFAVDTPLVYYHQQAYVAGEYWGQGTQVTVSS”, the “polyreactivity (PSR sort gate)” value is on record as “low polyreactivity”.

Take “QVQLVESGGGLVQAGGSLRLSCAASGRTSWYYAMGWYRQAPGKERELVAAISVRAGSTYYADSVKGRFTISRDNAKNTVYLQMNSLKPEDTAVYYCAREYSPYTSRRDYWGQGTQVTVSS”: the “polyreactivity (PSR sort gate)” value is “high polyreactivity”.

As to “QVQLVESGGGLVQAGGSLRLSCAASGRTSYVYAMGWYRQAPGKERELVATISFRGGSTYYADSVKGRFTISRDNAKNTVYLQMNSLKPEDTAVYYCAATTPYYTPRRRNEYWGQGTQVTVSS”, the “polyreactivity (PSR sort gate)” value is given as “high polyreactivity”.

For “QVQLVESGGGLVQAGGSLRLSCAASGRTTYWYAMGWYRQAPGKERELLADISWSGGSTYYADSVKGRFTISRDNAKNTVYIQMNSLKPEDTAVYYCNAAEQKYSIYYAFDTGPYDYWGQGTQVTVSS”, the “polyreactivity (PSR sort gate)” value is on record as “low polyreactivity”.

In the case of “QVQLVESGGGLVQAGGSLRLSCAASGRTVGYYGMGWYRQAPGKERELVAAITGSGGSTYYADSVKGRFTISRDNAKNTVYLQMNSLKPEDTAVYYCAATYLSRWTLYDYWGQGTQVTVSS”, the “polyreactivity (PSR sort gate)” value is “high polyreactivity”.

“QVQLVESGGGLVQAGGSLRLSCAASGRTVSGYSMGWYIQAPGKERELVARITSGYSTNYADSVKWRFTISRDNAKNTVYLQMNCMKPEDTAVYYCAADRVWAFWTYGYWGQGTQVTVSS”: the “polyreactivity (PSR sort gate)” value is “low polyreactivity”.

With “QVQLVESGGGLVQAGGSLRLSCAASGRTVWDSAMGWYRQAPGNERELVAAIASNTGSTYYADSVKGRFTISRDNAKNTVYLQLNSLKPEDTAVYYCNVEYYYDFNFNYDDYEFDYWGQGTHVTVSS”, the “polyreactivity (PSR sort gate)” value is on record as “high polyreactivity”.

In the case of “QVQLVESGGGLVQAGGSLRLSCAASGRTVYKNTMGWYRQAPGKERELVAAISIRGGSTYYADSVKGRFTISRDNAKNTVYLQMNSLKPEDTAVYYCNVVYQKAARIVDFDYWGQGTQVTVSS”, the “polyreactivity (PSR sort gate)” value is “high polyreactivity”.

Turning to “QVQLVESGGGLVQAGGSLRLSCAASGRTVYVYYMGWYRQAPGKERELVAAISTNYADSVKGRCTISRDNAKNTVYFQMNSLIPEDTAVYYCAADDIHYVIHAYYSTGVDYWGQGTQVTVSS”, the “polyreactivity (PSR sort gate)” value was “low polyreactivity”.

Consider “QVQLVESGGGLVQAGGSLRLSCAASGRTYFTNAMGWYRQAPGKERELVAAITGSGGSTSYADSVKVRFTISRDNAKNTVYLQMNSLKPEDTAVYYCAAEWQELEYVYWGQGTQVTVSS”, for which the “polyreactivity (PSR sort gate)” value is given as “low polyreactivity”.

For “QVQLVESGGGLVQAGGSLRLSCAASGRTYGIYAMGWYRQAPGKEREFVAAISWSSGGSTYYADSVKGRFTISRDNAKNTVYFQMISLKPEDTAVYYCNVDTIYNLESDYWGQGTQVTVSS”, the “polyreactivity (PSR sort gate)” value is “low polyreactivity”.

On to “QVQLVESGGGLVQAGGSLRLSCAASGRTYRFNAMGWYRQAPGKERELVAAISKSGGSTYYADSVKGRFTISRDNAKNTVYLQMNSLKPEDTAVYYCAAQTYLYEYKYWGQGTQVTVSS”, for which the “polyreactivity (PSR sort gate)” value is “high polyreactivity”.

Consider “QVQLVESGGGLVQAGGSLRLSCAASGRTYRTYAMGWYRQAPGKEREFVAAITSSGGSTYYADSVKGRFTISRDNAKNTVDLEMNSLKPEDTAVYSCNAKRRYGPDKYDYWGQGTQVTVSS”, for which the “polyreactivity (PSR sort gate)” value is on record as “high polyreactivity”.

As to “QVQLVESGGGLVQAGGSLRLSCAASGRTYRWYVMGWYIQAPGTERELVAAISQSGGSTYYADSVKGRFTISRDNAMNTVYLEMYSLKPEDTAVYYCNAYPRYGGYAYGRGDYWGQGTQVTVSS”, the “polyreactivity (PSR sort gate)” value is reported as “high polyreactivity”.

For the sequence “QVQLVESGGGLVQAGGSLRLSCAASGRTYRYNAMGWYRQAPGKERELVATITRTGSTDYADSVKGRFTISRDNAKNTVYLQMNSLKPEDTAVYYCNARGVYSGRTYYYIYDYWGQGTQVTVSS”, the “polyreactivity (PSR sort gate)” value is “high polyreactivity”.

Turning to “QVQLVESGGGLVQAGGSLRLSCAASGRTYSYNAMGWYRQEPGKERELVAGITYTGGRTYYADSVKGRFTISRDNAKNTVYLQMNSLKPEDTAVYYCAVGEYGHWLYRYEYWGQGTQVTVSS”, the “polyreactivity (PSR sort gate)” value was “high polyreactivity”.

As for “QVQLVESGGGLVQAGGSLRLSCAASGRTYWPNALGWSRQARGKERELVAAISWRGGSTSYADSVKGRFTISRDNAKNTVYLQMNRLKPEDTAVYYCAATSIRRNSKVLISGRLYDYWGQGTQVTVSS”, the “polyreactivity (PSR sort gate)” value is “high polyreactivity”.

As to “QVQLVESGGGLVQAGGSLRLSCAASGRTYYYYAMGWYRQAPGTQRELVASIRYSTGSTYYADSVKARFTISRDNAKNTVYLQKNSLKPVDTAVYYCAGLRYARASRYDYWGLGTQVTVSS”, the “polyreactivity (PSR sort gate)” value was “high polyreactivity”.

As to “QVQLVESGGGLVQAGGSLRLSCAASGRVFTPYAMGWYRQAPGKERELVAVIRDGSTYYADSVKGRFTISRDNAKNTVYLQMNSLKPEDTAVYYCRYDIWVWWSGAYDYWGQVTQVTVSS”, the “polyreactivity (PSR sort gate)” value was “low polyreactivity”.

Take “QVQLVESGGGLVQAGGSLRLSCAASGSFGFYVMGWYRQAPGKERELVSAISSVGSTNYADSVKGRFTISRDNAKNTVYFQMNSLKPEDTAVYYCARRYWYPDAFYRYDYWGQGTQVTVSS”: the “polyreactivity (PSR sort gate)” value is on record as “low polyreactivity”.

With “QVQLVESGGGLVQAGGSLRLSCAASGSFYDRYVMGWYRQAPGKERELVAAISSSGGSTYYADSVKGRFTISRDNAKNTVYFQMNSLKPEDSAVYYCAAKFSYGRYNYWGQGTQVTVSS”, the “polyreactivity (PSR sort gate)” value is on record as “high polyreactivity”.

For “QVQLVESGGGLVQAGGSLRLSCAASGSIAHYAMGWYRQAPGKERELVAAINWSGGSTNYADSVKGRFTISRDNAKNTVYLQMNSLKPEDTAVYYCNAAGGYKPYLQDVASRYDYWGQGTQVTVSS”, the “polyreactivity (PSR sort gate)” value is recorded as “high polyreactivity”.

Turning to “QVQLVESGGGLVQAGGSLRLSCAASGSIAKINAMGWYRQAPGKERELVAAINTGDSTYYADSVKGRFTISRDNAKNTVYLQMNSLKPEDTAVYYCAAEGSPNGYDYWGQGTQVTVSS”, the “polyreactivity (PSR sort gate)” value is given as “low polyreactivity”.

As for “QVQLVESGGGLVQAGGSLRLSCAASGSICGTYAMGWYRQAPGKERELVARITRGVSTNYADSVKGRFTISRDNAKNTVYLQMTSLKPEDTAVYYCAAESGNRYEYWGQGTQVTVSS”, the “polyreactivity (PSR sort gate)” value was “low polyreactivity”.

As to “QVQLVESGGGLVQAGGSLRLSCAASGSICVRNAMGWYRQAPGKERELVAADSVKGRFTISRDNAKNTVYLQMNSLKPEDTAVYYCNKAYIIRRGPIVYYGFDYWGQGTQVTVSS”, the “polyreactivity (PSR sort gate)” value is given as “low polyreactivity”.

Consider “QVQLVESGGGLVQAGGSLRLSCAASGSIDGRYAMGWYRQAPGKERELVAVITSGGSTNYADSVKGRFTISRDNAKNTVYLQMKSLKPEDTAVYYCAVRPYALHRLADQPGGDDYWGQGTQVTVSS”, for which the “polyreactivity (PSR sort gate)” value is “low polyreactivity”.

In the case of “QVQLVESGGGLVQAGGSLRLSCAASGSIDRFYAMGWYRQAPRKERDLVAFITSTGRTYYADSVKGRFTISRDNAKNTVYLQMNSLKPEDTAVYYCAAGYPKRVAYLWFSQYDYWGKGTQVTVSS”, the “polyreactivity (PSR sort gate)” value is given as “low polyreactivity”.

Take “QVQLVESGGGLVQAGGSLRLSCAASGSIFAANALGWYRQAPGKERELVAAITSGGGSTYYADSVKGRFTISRDNAKNTVYLQMNSLKPEDTAVYYCAARSLVQDHAYGNNYWGQGTQVTVSS”: the “polyreactivity (PSR sort gate)” value is reported as “low polyreactivity”.

As to “QVQLVESGGGLVQAGGSLRLSCAASGSIFADYAMGWYRQAPGKERELVSAITGSGGRTYYADSVKGRFTISRDNAKNTLYLQMNSLKPEDTAVYYCAADGLSNVRQMDYWGQGTQVTVSS”, the “polyreactivity (PSR sort gate)” value is recorded as “low polyreactivity”.

Turning to “QVQLVESGGGLVQAGGSLRLSCAASGSIFAFNAMGWYRQAPGKERELVAAMSGSGARTYYADSVKGRFTTSRDNAKNTVYLQLNSLKPEDTAVYYCARPYGYGYDYWGQGTQVTVSS”, the “polyreactivity (PSR sort gate)” value was “high polyreactivity”.

Regarding “QVQLVESGGGLVQAGGSLRLSCAASGSIFAFYAKGWYRQAPGKERELVAYITSGGSTYYADSVKGRFTISRDNAKNNVYLQMNSLKPEDTAVYYFNSVYYSALVSGGETTIKRRYYWGQGTQVTVSS”, the “polyreactivity (PSR sort gate)” value was “high polyreactivity”.

As to “QVQLVESGGGLVQAGGSLRLSCAASGSIFAGHAMGWSIQAPGKERELVAAISRRGGNTYYADSVKGRFTISRDNAKNTVYLQMNSLKPEDTAVYYCAVRSRLYSSSIAYDYWGQGTQVTVSS”, the “polyreactivity (PSR sort gate)” value was “high polyreactivity”.

On to “QVQLVESGGGLVQAGGSLRLSCAASGSIFAGYAMGWYRQAPGKERELVAAITSRGGNTYYADSVKGRFTISRDNAKNTVYLQMNSLKPEDTAVYYCAADVTRWSWVGTHYYWGQGTQVTVSS”, for which the “polyreactivity (PSR sort gate)” value is on record as “high polyreactivity”.

In the case of “QVQLVESGGGLVQAGGSLRLSCAASGSIFAHYAMGWYRQAPGKERELVARISWSGGSTYYADSVKGRFTISRDNEKNTVYLQKNSMKPEDTAVYYCARAGRSWDTLYKYYLEHDYWGQGTQVTVSS”, the “polyreactivity (PSR sort gate)” value is “low polyreactivity”.

Take “QVQLVESGGGLVQAGGSLRLSCAASGSIFAINAMGWDRQAPGKERELVAAITRGGSTYADSVKGRFTISRDNAKNTVYLQINSLKPEDTAVYYCAARWYRRGNGFNYWGQCTQVTVSS”: the “polyreactivity (PSR sort gate)” value is “high polyreactivity”.

Take “QVQLVESGGGLVQAGGSLRLSCAASGSIFAIYAMGWYRQAPGKERELVAAISSSSGSTYYADSVKARFTISRDNAKNTVYLQMYSLKPEDTAVYYCAAESGRRIKYWRGYYYWGQGTQVTVSS”: the “polyreactivity (PSR sort gate)” value is recorded as “low polyreactivity”.

In the case of “QVQLVESGGGLVQAGGSLRLSCAASGSIFAKNAMGWYRQAPGKERELVAGIDFSGGSTYSADSVKGRFTISRDNAQNTVYLQMNSLKPEDTAVDYCAADWAYKYELDYWGQGTQVTVSS”, the “polyreactivity (PSR sort gate)” value is “low polyreactivity”.

For the sequence “QVQLVESGGGLVQAGGSLRLSCAASGSIFALYAMGWSRQEPGKEREFVAAISYRGGRTYYADSVKGRFTISRDNAKNTVYLQMNSLKPEDTAVYYCDTDFPGKFDYWGQGTQVTVSS”, the “polyreactivity (PSR sort gate)” value is given as “low polyreactivity”.
